# Laboratory results taken from publication PMC11681983.
# B1: bispecific fusion protein 17V05 (bispecific antibody, V domains shown)
# VH: EVQLVESGGGLVQPGGSLRLSCAASGFTFSSFDMSWGRQAPGKRLEWVAFMSSGGSTYYPDSVKGRFTISRDNSKNTLYLQMNSLRAEDTAVYYCARGERYGSYWGQGTLVTVSS
# VL: DIQMTQSPSSLSASVGDRVTITCKASDHINNWLAWYQQKPGKAPKLLISGATSLETGVPSRFSGSGSGTDYTLTISSLQPEDFATYYCQQYWSTPFTFGSGTKLEIK
# Assays:
# [1] = target: VEGF (UniProt P15692)
# [2] = target: VEGF (UniProt P15692); assay: SPR; Biacore, n = 3
# [3] = target: VEGF (UniProt P15692); assay: ELISA; direct binding ELISA to IL-17A or VEGF, measured in duplicate, n = 2; who was coated is not told
# Chain of VEGF (P15692 whole entry): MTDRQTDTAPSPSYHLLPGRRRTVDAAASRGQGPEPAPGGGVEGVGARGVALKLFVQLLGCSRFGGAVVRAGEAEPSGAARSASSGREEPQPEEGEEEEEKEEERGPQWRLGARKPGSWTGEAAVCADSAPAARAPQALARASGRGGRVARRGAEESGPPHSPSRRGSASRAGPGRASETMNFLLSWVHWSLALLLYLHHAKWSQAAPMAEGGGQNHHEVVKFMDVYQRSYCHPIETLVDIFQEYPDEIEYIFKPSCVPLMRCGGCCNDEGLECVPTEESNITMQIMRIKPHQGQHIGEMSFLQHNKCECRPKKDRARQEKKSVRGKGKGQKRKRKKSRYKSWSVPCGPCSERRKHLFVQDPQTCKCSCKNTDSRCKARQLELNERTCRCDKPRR
binder,measurement,setting,value
B1,luciferase signal of KDR/NFAT-RE HEK293 reporter cells with 30 ng/mL VEGF; blocks signalling of VEGF through KDR,[1],0.26 nM
same,Kd,[2],0.011 nM
same,EC50,[3],0.37 nM
